Assay results reported in patent US20070196374A1 (published 2007).

Columns and labels:
VEGF [1] = target: T1, VEGF (human, UniProt P15692-4 27-191, limits assumed); assay: competition ELISA: Fab + biotinylated VEGF, then KDR-IgG plate
T1 construct: also called vascular endothelial growth factor; biotinylated VEGF
Method: Standards (6.9-440 ng/ml chimeric F(ab)) and two-fold serial of samples were incubated with 2 nM biotinylated VEGF for 1 h in tubes. The solutions from the tubes were then transferred to the ELISA plates and incubated for 1 h. […] Titration curves were fit with a four-parameter nonlinear regression curve-fitting program (KaleidaGraph, Synergy Software, Reading Pa.). […] Assays for full-length IgG were the same as for the F(ab)s except that the assay buffer contained 10% human serum.

VEGF [2] = target: T1, VEGF; assay: BIAcore-2000 SPR, wt = Y0192
Method: The VEGF-binding affinities of Fab fragments were calculated from association and dissociation rate constants measured using a BIAcore-2000™ surface plasmon resonance system (BIAcore, Inc., Piscataway, N.J.). A biosensor chip was activated for covalent coupling of VEGF using N-ethyl-N′-(3-dimethylaminopropyl)-carbodiimide hydrochloride (EDC) and N-hydroxysuccinimide (NHS) according to the supplier's (BIAcore, Inc., Piscataway, N.J.) instructions. VEGF was buffered exchanged into 20 mM sodium acetate, pH 4.8 and diluted toapproximately 50 μg/mL. An aliquot (35 μL) was injected at a flow rate of 2 μL/min to achieve approximately 700-1400 response units (RU) of coupled protein. Finally, 1 M ethanolamine was injected as a blocking agent.
For kinetics measurements, two-fold serial dilutions of Fab were injected in PBS/TWEEN™ buffer (0.05% TWEEN 20™ in phosphate buffered saline) at 25° C. at a flow rate of 10 μL/min. […] Equilibrium dissociation constants, Kd's from surface plasmon resonance (SPR) measurements were calculated as koff/kon.

VEGF121 [3] = target: T2, VEGF121 (human, UniProt P15692 27-147); assay: BIAcore SPR, VEGF121 on chip
T2 construct: mature; also called Purified VEGF121
T2 sequence (looked up): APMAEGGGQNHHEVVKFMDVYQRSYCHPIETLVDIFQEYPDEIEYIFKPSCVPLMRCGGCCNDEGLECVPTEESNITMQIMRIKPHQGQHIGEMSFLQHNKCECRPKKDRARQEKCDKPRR
Method: (§1) VEGF₁₂₁ was covalently immobilized on the biosensor chip via primary amino groups. Binding of humanized A4.6.1 Fab variants was measured by flowing solutions of Fab in PBS/0.05% TWEEN 20™ over the chip at a flow rate of 20 μL/min. Following each binding measurement, residual Fab was stripped from the immobilized ligand by washing with 5 μL of 50 mM aqueous HCl at 3 μL/min. Binding profiles were analyzed by nonlinear regression using a simple monovalent binding model (BIAevaluation software v2.0; Pharmacia).

VEGF121 [4] = target: T2, VEGF121; assay: BIAcore SPR, VEGF121 on chip, Fab in flow
Method: as §1

B1: chimeric F(ab) (Fab, V domains shown)
VH: EIQLVQSGPELKQPGETVRISCKASGYTFTNYGMNWVKQAPGKGLKWMGWINTYTGEPTYAADFKRRFTFSLETSASTAYLQISNLKNDDTATYFCAKYPHYYGSSHWYFDVWGAGTTVTVSS
VL: DIQMTQTTSSLSASLGDRVIISCSASQDISNYLNWYQQKPDGTVKVLIYFTSSLHSGVPSRFSGSGSGTDYSLTISNLEPEDIATYYCQQYSTVPWTFGGGTKLEIKR
notes: Murine A4.6.1 VH fused to human CH1 at SerH113 and murine VL fused to human CL at LysL107; also called chim-F(ab); A4.6.1 chimera
- EC50 (VEGF [1]): 49 µg/mL

B2: Y0238-1 (Fab, V domains shown)
VH: EVQLVESGGGLVQPGGSLRLSCAASGYTFTNYGINWVRQAPGKGLEWVGWINTYTGEPTYAADFKRRFTFSLDTSKSTAYLQMNSLRAEDTAVYYCAKYPYYRGTSHWYFDVWGQGTL
VL: DIQLTQSPSSLSASVGDRVTITCRANEQLSNYLNWYQQKPGKAPKVLIYFTSSLHSGVPSRFSGSGSGTDFTLTISSLQPEDFATYYCQQYSTVPWTFGQGTKVEIKR
notes: Clone of library YC-81 on the pY0192 template; Soluble Fab
- Kd (wt)/Kd (VEGF [2]): 7.3 ratio

B3: Y0238-10 (Fab, V domains shown)
VH: EVQLVESGGGLVQPGGSLRLSCAASGYTFTNYGINWVRQAPGKGLEWVGWINTYTGEPTYAADFKRRFTFSLDTSKSTAYLQMNSLRAEDTAVYYCAKYPYYRNTSHWYFDVWGQGTL
VL: DIQLTQSPSSLSASVGDRVTITCRANEQLSNYLNWYQQKPGKAPKVLIYFTSSLHSGVPSRFSGSGSGTDFTLTISSLQPEDFATYYCQQYSTVPWTFGQGTKVEIKR
notes: as for B2
- Kd (wt)/Kd (VEGF [2]): 4.8 ratio

B4: Y0244-4 (Fab, V domains shown)
VH: EVQLVESGGGLVQPGGSLRLSCAASGYTFTNYGINWVRQAPGKGLEWVGWINTYTGEPTYAADFKRRFTFSIDKSKSTAYLQMNSLRAEDTAVYYCAKYPHYYGSSHWYFDVWGQGTL
VL: DIQLTQSPSSLSASVGDRVTITCRANEQLSNYLNWYQQKPGKAPKVLIYFTSSLHSGVPSRFSGSGSGTDFTLTISSLQPEDFATYYCQQYSTVPWTFGQGTKVEIKR
notes: Soluble Fab
- Kd (wt)/Kd (VEGF [2]): 0.9 ratio

B5: Y0313-3 (Fab, V domains shown)
VH: EVQLVESGGGLVQPGGSLRLSCAASGYTFTNYGINWVRQAPGKGLEWVGWINTYTGEPTYAADFKRRFTFSLDTSKSTAYLQMNSLRAEDTAVYYCAKYPYYYGSSHWYFDVWGQGTL
VL: DIQLTQSPSSLSASVGDRVTITCRANEQLSNYLNWYQQKPGKAPKVLIYFTSSLHSGVPSRFSGSGSGTDFTLTISSLQPEDFATYYCQQYSTVPWTFGQGTKVEIKR
notes: Reversion mutant of Y0238-3 (VH3 T105S); soluble Fab
- Kd (wt)/Kd (VEGF [2]): 4.5 ratio

B6: Y0244-1 (Fab, V domains shown)
VH: EVQLVESGGGLVQPGGSLRLSCAASGYTFTNYGINWVRQAPGKGLEWVGWINTYTGEPTYAADFKRRFTFSVDVSKSTAYLQMNSLRAEDTAVYYCAKYPHYYGSSHWYFDVWGQGTL
VL: DIQLTQSPSSLSASVGDRVTITCRANEQLSNYLNWYQQKPGKAPKVLIYFTSSLHSGVPSRFSGSGSGTDFTLTISSLQPEDFATYYCQQYSTVPWTFGQGTKVEIKR
notes: Soluble Fab
- Kd (wt)/Kd (VEGF [2]): 3.6 ratio

B7: Y0238-5 (Fab, V domains shown)
VH: EVQLVESGGGLVQPGGSLRLSCAASGYTFTNYGINWVRQAPGKGLEWVGWINTYTGEPTYAADFKRRFTFSLDTSKSTAYLQMNSLRAEDTAVYYCAKYPYYIAKSHWYFDVWGQGTL
VL: DIQLTQSPSSLSASVGDRVTITCRANEQLSNYLNWYQQKPGKAPKVLIYFTSSLHSGVPSRFSGSGSGTDFTLTISSLQPEDFATYYCQQYSTVPWTFGQGTKVEIKR
notes: as for B2
- Kd (wt)/Kd (VEGF [2]): 3.2 ratio

B8: Y0243-1 (Fab, V domains shown)
VH: EVQLVESGGGLVQPGGSLRLSCAASGYDFTHYGMNWVRQAPGKGLEWVGWINTYTGEPTYAADFKRRFTFSLDTSKSTAYLQMNSLRAEDTAVYYCAKYPHYYGSSHWYFDVWGQGTL
VL: DIQLTQSPSSLSASVGDRVTITCRANEQLSNYLNWYQQKPGKAPKVLIYFTSSLHSGVPSRFSGSGSGTDFTLTISSLQPEDFATYYCQQYSTVPWTFGQGTKVEIKR
notes: Soluble Fab from E. coli 34B8
- Kd (wt)/Kd (VEGF [2]): 4.1 ratio

B9: Y0238-7 (Fab, V domains shown)
VH: EVQLVESGGGLVQPGGSLRLSCAASGYTFTNYGINWVRQAPGKGLEWVGWINTYTGEPTYAADFKRRFTFSLDTSKSTAYLQMNSLRAEDTAVYYCAKYPYYWGTSHWYFDVWGQGTL
VL: DIQLTQSPSSLSASVGDRVTITCRANEQLSNYLNWYQQKPGKAPKVLIYFTSSLHSGVPSRFSGSGSGTDFTLTISSLQPEDFATYYCQQYSTVPWTFGQGTKVEIKR
notes: as for B2
- Kd (wt)/Kd (VEGF [2]): ≥ 7.3 ratio

B10: F(ab)-1 (Fab, V domains shown)
VH: EVQLVESGGGLVQPGGSLRLSCAASGYTFTNYGMNWVRQAPGKGLEWVGWINTYTGEPTYAADFKRRFTISRDNSKNTLYLQMNSLRAEDTAVYYCARYPHYYGSSHWYFDVWGQGTLVTVSS
VL: DIQMTQSPSSLSASVGDRVTITCSASQDISNYLNWYQQKPGKAPKLLIYFTSSLHSGVPSRFSGSGSGTDFTLTISSLQPEDFATYYCQQYSTVPWTFGQGTKVEIK
- fold reduction of binding affinity against chimeric F(ab) (VEGF [1]): > 1000 fold

B11: hu2.10 (Fab, V domains shown)
VH: EVQLVESGGGLVQPGGSLRLSCAASGYTFTNYGMNWIRQAPGKGLEWVGWINTYTGEPTYAADFKRRFTISLDTSASTVYLQMNSLRAEDTAVYYCAKYPHYYGSSHWYFDVWGQGTLVTVSS
VL: DIQMTQSPSSLSASVGDRVTITCSASQDISNYLNWYQQKPGKAPKLLIYFTSSLHSGVPSRFSGSGSGTDYTLTISSLQPEDFATYYCQQYSTVPWTFGQGTKVEIK
notes: Phage-selected consensus clone, soluble Fab with human constant domains; also called consensus clone hu2.10
- fold tighter KD against hu2.0 (VEGF121 [3]): ≥ 125 fold
- KD(A4.6.1)/KD(mut) as headed (values run as KD(mut)/KD(A4.6.1)) (VEGF121 [4]): 35 ratio

B12: F(ab)-8 (Fab, V domains shown)
VH: EVQLVESGGGLVQPGGSLRLSCAASGYTFTNYGMNWVRQAPGKGLEWVGWINTYTGEPTYAADFKRRFTFSLDTSKNTAYLQMNSLRAEDTAVYYCARYPHYYGSSHWYFDVWGQGTLVTVSS
VL: DIQMTQSPSSLSASVGDRVTITCSASQDISNYLNWYQQKPGKAPKVLIYFTSSLHSGVPSRFSGSGSGTDFTLTISSLQPEDFATYYCQQYSTVPWTFGQGTKVEIK
notes: F(ab)-5 with IleH69Phe and LeuH78Ala; Human CH1 and CL
- fold improvement of binding against F(ab)-5 (VEGF [1]): 8 fold

B13: F(ab)-7 (Fab, V domains shown)
VH: EVQLVESGGGLVQPGGSLRLSCAASGYTFTNYGMNWVRQAPGKGLEWVGWINTYTGEPTYAADFKRRFTFSLDTSKNTLYLQMNSLRAEDTAVYYCARYPHYYGSSHWYFDVWGQGTLVTVSS
VL: DIQMTQSPSSLSASVGDRVTITCSASQDISNYLNWYQQKPGKAPKVLIYFTSSLHSGVPSRFSGSGSGTDFTLTISSLQPEDFATYYCQQYSTVPWTFGQGTKVEIK
notes: F(ab)-5 with IleH69Phe; Human CH1 and CL
- fold improvement of binding against F(ab)-5 (VEGF [1]): 2 fold

B14: hu2.10V (Fab, V domains shown)
VH: EVQLVESGGGLVQPGGSLRLSCAASGYTFTNYGMNWIRQAPGKGLEWVGWINTYTGEPTYAADFKRRFTISLDTSASTVYLQMNSLRAEDTAVYYCAKYPHYYGSSHWYFDVWGQGTLVTVSS
VL: DIQMTQSPSSLSASVGDRVTITCSASQDISNYLNWYQQKPGKAPKVLIYFTSSLHSGVPSRFSGSGSGTDYTLTISSLQPEDFATYYCQQYSTVPWTFGQGTKVEIK
notes: hu2.10 with the Leu->Val change at VL 46; Fab
- fold improvement in KD against hu2.10 (VEGF121 [3]): 6 fold
- KD(A4.6.1)/KD(mut) as headed (values run as KD(mut)/KD(A4.6.1)) (VEGF121 [4]): 5.8 ratio

B15: F(ab)-6 (Fab, V domains shown)
VH: EVQLVESGGGLVQPGGSLRLSCAASGYTFTNYGMNWVRQAPGKGLEWVGWINTYTGEPTYAADFKRRFTISLDTSKNTAYLQMNSLRAEDTAVYYCARYPHYYGSSHWYFDVWGQGTLVTVSS
VL: DIQMTQSPSSLSASVGDRVTITCSASQDISNYLNWYQQKPGKAPKVLIYFTSSLHSGVPSRFSGSGSGTDFTLTISSLQPEDFATYYCQQYSTVPWTFGQGTKVEIK
notes: F(ab)-5 with LeuH78Ala; Human CH1 and CL
- fold improvement of binding against F(ab)-5 (VEGF [1]): 2 fold

B16: F(ab)-5 (Fab, V domains shown)
VH: EVQLVESGGGLVQPGGSLRLSCAASGYTFTNYGMNWVRQAPGKGLEWVGWINTYTGEPTYAADFKRRFTISLDTSKNTLYLQMNSLRAEDTAVYYCARYPHYYGSSHWYFDVWGQGTLVTVSS
VL: DIQMTQSPSSLSASVGDRVTITCSASQDISNYLNWYQQKPGKAPKVLIYFTSSLHSGVPSRFSGSGSGTDFTLTISSLQPEDFATYYCQQYSTVPWTFGQGTKVEIK
notes: Human CH1 and CL
- fold increase of binding affinity against F(ab)-4 (VEGF [1]): ~4 fold

B17: F(ab)-9 (Fab, V domains shown)
VH: EVQLVESGGGLVQPGGSLRLSCAASGYTFTNYGMNWVRQAPGKGLEWVAWINTYTGEPTYAADFKRRFTFSLDTSKNTAYLQMNSLRAEDTAVYYCARYPHYYGSSHWYFDVWGQGTLVTVSS
VL: DIQMTQSPSSLSASVGDRVTITCSASQDISNYLNWYQQKPGKAPKVLIYFTSSLHSGVPSRFSGSGSGTDFTLTISSLQPEDFATYYCQQYSTVPWTFGQGTKVEIK
notes: F(ab)-8 with GlyH49Ala; Human CH1 and CL
- fold reduction of binding against F(ab)-8 (VEGF [1]): 15 fold
